This is an account of results in US20200347130A1 (JIANGSU HENGRUI MEDICINE, published 2020).

Assay [1] addresses T1, CD96 epitope peptide #3 IAVYHPQYGFYCAYGRPCES (47-66) (human).
T1 construct: also called 3# peptides; #3 antigen fragment
T1 peptide: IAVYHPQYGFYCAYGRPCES
Nature of the assay: FACS on CD96-CHOs cells after pre-incubation of the antibody with the peptide; a fall of the MFI against antibody alone shows that the peptide occupies the antibody. The method, then: In order to verify that the binding of the antibody to CD96 protein polypeptide fragment is specific, we designed the following FACS for verification. While polypeptide fragments were incubated and bound to an antibody, epitopes of the antibody binding to CD96 protein were occupied, and then the signal of the antibody binding to CD96 protein on the cell surface decreased. The specific experimental methods are as follows:
The antibody samples were diluted to 1.2 μg/mL with 1% BSA, and the peptides were diluted to 40 μg/mL synchronously. The peptides and antibody sample were mixed at a volume ratio of 1:1 and pre-incubated at 37° C. for 90 minutes. CD96-CHOs cells were collected and washed once in PBS, then dispensed according to 0.5×10⁶/test. The cells with 100 μL of peptide-antibody mixture were resuspended, incubated at 4° C. for 1 hour, followed by washing 3 times with 1% BSA. Cells were resuspended with 100 μL dilution (1:400, 1:40, 1:100) of Alexa Fluor 488 anti-human IgG Fc (thermofisher, A-11013), PE goat anti-mouse IgG (Biolegend, Cat No. 405307), or PE goat anti-Rat IgG (Biolegend, Cat No. 405406), incubated at 4° C. for 40 minutes, followed by washing 3 times with 1% BSA. The cells were resuspended with 200 μL of 1% BSA, MFI of each sample was read on a flow cytometer BD FACSCanto II, and the data were analyzed with GraphPad Prism 5 to make a histogram. MFI difference between the sample without polypeptides incubation and the one incubated with polypeptides was used to determine the antigenic epitope recognized by the CD96 antibody.

In assay [2] the target is T2, CD96 epitope peptide #5 (77-86) (human).
T2 peptide: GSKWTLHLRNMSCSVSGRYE
Nature of the assay: peptide ELISA, peptide coated. As to the method:
(§1) The epitopes recognized by anti-CD96 antibody were detected by the assay of binding the antibody to different polypeptide fragments of CD96 protein. The fragments of different polypeptides of the CD96 antigen were coated on the microtiter plate. The signal density after the antibody was added was used to judge the binding activity of the antibody and the polypeptide. The specific experimental method is as follows:
(§2) The polypeptides were diluted to a concentration of 20 μg/ml with PBS buffer (Shanghai Yuanpei Biotechnology Co., Ltd. Cat No. B320), pH 7.4, added to a 96-well microtiter plate (Corning, Cat No. CLS3590-100EA) at a volume of 50 μl/well, and coated at 4° C. overnight. After discarding the liquid, 250 μl/well of 5% skim milk (BD skim milk, Cat No. 232100) blocking solution diluted with PBS was added, and the plate was incubated in an incubator at 37° C. for 3 hours. After blocking, the blocking solution was discarded, and the plate was washed 5 times with PBST buffer (pH 7.4 PBS containing 0.05% tween-20). 50 μl/well of different concentrations of the antibodies to be tested (hybridoma purification antibody or humanized antibody) diluted with sample dilution was added, and the plate was incubated in an incubator at 37° C. for 2 hours. […] After washing the plate 5 times with PBST, 50 μl/well of TMB chromogenic substrate (KPL, Cat No. 52-00-03) was added, the plate was incubated at room temperature for 5-15 min, followed by adding 50 μl/well of 1M H₂SO₄ to stop the reaction. The absorption value was read at 450 nm with a microplate reader (Thermo Scientific MuLtiskan MK3), and the epitopes that CD96 antibody can recognize were analyzed.

Assay [3] concerns the target T3, CD96 epitope peptide #14 (211-230) (human).
T3 peptide: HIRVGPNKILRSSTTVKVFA
As to the kind of experiment: peptide ELISA, peptide coated. As to the method:
as §1, §2
In general terms: In an ELISA, binding on a coated surface is turned into a signal by an enzyme label.

The target of assay [4] is T4, Biotinylated CD96 antigen (human, UniProt P40200-2 22-503, limits assumed, biotinylated).
T4 sequence (looked up): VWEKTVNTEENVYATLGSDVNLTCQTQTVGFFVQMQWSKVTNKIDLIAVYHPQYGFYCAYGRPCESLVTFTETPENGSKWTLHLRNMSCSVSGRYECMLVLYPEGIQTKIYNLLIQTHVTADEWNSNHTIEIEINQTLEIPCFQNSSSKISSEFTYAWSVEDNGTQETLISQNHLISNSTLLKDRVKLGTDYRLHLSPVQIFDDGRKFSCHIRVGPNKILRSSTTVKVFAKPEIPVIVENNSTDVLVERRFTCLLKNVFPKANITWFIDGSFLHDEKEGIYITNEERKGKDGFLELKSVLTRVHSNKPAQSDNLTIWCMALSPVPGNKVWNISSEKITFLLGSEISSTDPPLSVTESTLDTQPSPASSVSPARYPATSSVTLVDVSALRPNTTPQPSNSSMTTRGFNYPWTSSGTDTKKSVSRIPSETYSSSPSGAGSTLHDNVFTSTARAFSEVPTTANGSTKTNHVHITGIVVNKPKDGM
As to the kind of experiment: competition ELISA: antibody B pre-incubated with biotinylated CD96 antigen, added to a plate coated with antibody A, HRP-streptavidin, OD450; competitor: coated h1721-003. As to the method:
Competitive assays of different antibodies binding to CD96 protein were used to classify binding epitopes of the antibodies. The specific experimental methods are as follows:
Antibody A was diluted to a concentration of 2 μg/ml with PBS buffer (Shanghai Yuanpei Biotechnology Co., Ltd. Cat No. B320), pH 7.4, added to a 96-well microtiter plate (Corning, Cat No. CLS3590-100EA) at a volume of 50 μl/well, and coated at 4° C. overnight. After discarding the liquid, 250 μl/well of 5% skim milk (BD skim milk, Cat No. 232100) blocking solution diluted with PBS was added, and the plate was incubated at 37° C. for 3 hours. After blocking, the blocking solution was discarded, and the plate was washed 5 times with PBST buffer (pH 7.4 PBS containing 0.05% tween-20) and stored for later use. Antibody B was diluted to 40 μg/ml and 8 μg/ml with 1% BSA, and Biotinylated CD96 antigen was simultaneously diluted to 4 μg/mL. Subsequently, antibody B and antigen were mixed in a 1:1 volume ratio, pre-incubated at 37° C. for 45 minutes, added into the enzyme plate coated with antibody A, thus incubating the plate in an incubator at 37° C. for 1.5 hours. After incubation, the plate was washed for 5 times with PBST, and 50 μl/well of HRP-labeled streptavidin (Sigma, Cat No. 52438) diluted with sample dilution was added, followed by incubating the plate at 37° C. for 1 hour. After washing the plate 5 times with PBST, 50 μl/well of TMB chromogenic substrate (KPL, Cat No. 52-00-03) was added for color development, followed by adding 50 μl/well of 1M H₂SO₄ to stop the reaction. The absorption value was read at 450 nm with a NOVOStar microplate reader, and the OD value was used to determine whether A and B CD96 antibodies compete with each other. Antibodies that compete with each other fall into the same class of antibodies, otherwise belong to different classes of antibodies (see FIG. 3 and Table 18).

B1: ch1718 (antibody, human IgG4 S228P, kappa, V domains shown)
VH: EFQLQQSGPELVKPGASVKISCKASAYSITDYNMNWVKQSNGKSLEWIGVINPSYGITDYNQNFKDKATLTVDQSSSTAYMQLNSLTSEDSAVYYCAIQLRLPGYFDVWGTGTTVIVSS
VL: DIKMTQSPSSMYASLGERVTITCKASQDINNYLNWFQQKPGKSPKTLIYRANRLVDGVPSRFSGSGSGQDYSLTISSLEYEDMGIYYCLKYDEFPYTFGGGTKVEIKR
notes: also called chimeric antibody corresponding to m1718
Consider B1, for which the binding result in assay [1], in assay [2] and in assay [3] was “binds” throughout.

B2: ch1719 (antibody, human IgG4 S228P, kappa, V domains shown)
VH: QVQLKESGPGLVAPSQSLSITCTVSGFSLISYGVSWVRQPPGKGLEWLGVIWGDGNTNYHSVLISRLSIRKDDSKSQVFLKLNSLQTDDTATYYCAKNNYYGSRYGYPMDYWGQGTSVTVSS
VL: DIVMTQSHKFMSTSVGDRVSITCKATQDVGTAVAWYQQKPGHSPKLLIYWASTRHTGVPERFTGSGSGTDFTLTIDNVQSEDLADYFCQQYGSSVLTFGAGTKVELRR
notes: also called chimeric antibody corresponding to m1719
As to B2, in assay [1], the binding result is “binds”.

B3: ch1721 (antibody, human IgG4 S228P, kappa, V domains shown)
VH: QVQLKESGPGLVAPSQSLSITCTVSGFSLISYGVNWVRQPPGKGLEWLGVIWGDGSTNYHSALISRLSISKDDSKSQVFLNLNSLQTDDTATYYCAKNYFYGSRYGYAMDSWGQGISVTVSS
VL: DIQMTQSPASLSAAVGETVTITCRASENIYSSLAWYQQKQGKSPQLLVYNAKTLIETVASRFSGSGSGTQYSLKINSLQPEDFGSFYCQHHYGTPYTFGGGTKLEIKR
notes: also called chimeric antibody corresponding to m1721
B3: the binding result in assay [1], in assay [2] and in assay [3] was “binds” each time.

B4: h1718-012 (antibody, V domains shown)
VH: EVQLVQSGAEVKKPGASVKVSCKASGYTITDYNMNWVRQAPGQRLEWIGVINPSYGITDYNQNFKDRVTITVDTSASTAYMELSSLRSEDTAVYYCAIQLRLPGYFDVWGQGTTVTVSS
VL: DIQMTQSPSSLSASVGDRVTITCKASQDINQYLNWFQQKPGKAPKTLIYRANRLVDGVPSRFSGSGSGQDYTLTISSLQPEDFATYYCLKYDEFPYTFGGGTKVEIK
notes: Only variable regions are tied to this name
Turning to B4, the “IC50 (read off the curve)” value in assay [4] is approximately 400 pM.

B5: h1721-003 (antibody, V domains shown)
VH: EVTLKESGPVLVKPTETLTLTCTVSGFSLSSYGVNWIRQPPGKALEWLGVIWGDGSTNYHSALISRLTISKDTSKSQVVLTLTNMDPVDTATYYCAKNYFYGSRYGYAMDSWGQGTTVTVSS
VL: DIQMTQSPSSLSASVGDRVTITCRASENIYSSLAWYQQKPGKAPKLLIYNAKTLIEGVPSRFSGSGSGTDFTLTISSLQPEDFATYYCQHHYGTPYTFGGGTKVEIK
notes: Only variable regions are tied to this name; also called M721-003
Consider B5, for which the “IC50 (read off the curve)” value in assay [4] was approximately 400 pM.

B6: h1719-010 (antibody, V domains shown)
VH: EVTLKESGPVLVKPTETLTLTCTVSGFSLSSYGVSWVRQPPGKGLEWLGVIWGDGNTNYHSVLISRLTISKDTSKSQVVLTLTNMDPVDTATYYCAKQNYYGSRYGYPIDYWGQGTTVTVSS
VL: DIQMTQSPSSVSASVGDRVTITCKATQDVGTAVAWYQQKPGKAPKLLIYWASTRHTGVPSRFSGSGSGTDFTLTISSLQPEDFATYYCQQYGSSVLTFGGGTKVEIK
notes: as for B4
In the case of B6, the “IC50 (read off the curve)” value in assay [4] was approximately 400 pM.
